The text below walks through data of US20260275312, “CRISPR NUCLEASE POLYPEPTIDES AND GENE EDITING SYSTEMS COMPRISING SUCH” (ARBOR BIOTECHNOLOGIES, INC., published 2026).

Holding throughout (settings): tags: N-term SV40 NLS, XTEN linker + C-term nucleoplasmin NLS
In one data set the target is T1, Nuclease S (synthetic construct).
T1 chain: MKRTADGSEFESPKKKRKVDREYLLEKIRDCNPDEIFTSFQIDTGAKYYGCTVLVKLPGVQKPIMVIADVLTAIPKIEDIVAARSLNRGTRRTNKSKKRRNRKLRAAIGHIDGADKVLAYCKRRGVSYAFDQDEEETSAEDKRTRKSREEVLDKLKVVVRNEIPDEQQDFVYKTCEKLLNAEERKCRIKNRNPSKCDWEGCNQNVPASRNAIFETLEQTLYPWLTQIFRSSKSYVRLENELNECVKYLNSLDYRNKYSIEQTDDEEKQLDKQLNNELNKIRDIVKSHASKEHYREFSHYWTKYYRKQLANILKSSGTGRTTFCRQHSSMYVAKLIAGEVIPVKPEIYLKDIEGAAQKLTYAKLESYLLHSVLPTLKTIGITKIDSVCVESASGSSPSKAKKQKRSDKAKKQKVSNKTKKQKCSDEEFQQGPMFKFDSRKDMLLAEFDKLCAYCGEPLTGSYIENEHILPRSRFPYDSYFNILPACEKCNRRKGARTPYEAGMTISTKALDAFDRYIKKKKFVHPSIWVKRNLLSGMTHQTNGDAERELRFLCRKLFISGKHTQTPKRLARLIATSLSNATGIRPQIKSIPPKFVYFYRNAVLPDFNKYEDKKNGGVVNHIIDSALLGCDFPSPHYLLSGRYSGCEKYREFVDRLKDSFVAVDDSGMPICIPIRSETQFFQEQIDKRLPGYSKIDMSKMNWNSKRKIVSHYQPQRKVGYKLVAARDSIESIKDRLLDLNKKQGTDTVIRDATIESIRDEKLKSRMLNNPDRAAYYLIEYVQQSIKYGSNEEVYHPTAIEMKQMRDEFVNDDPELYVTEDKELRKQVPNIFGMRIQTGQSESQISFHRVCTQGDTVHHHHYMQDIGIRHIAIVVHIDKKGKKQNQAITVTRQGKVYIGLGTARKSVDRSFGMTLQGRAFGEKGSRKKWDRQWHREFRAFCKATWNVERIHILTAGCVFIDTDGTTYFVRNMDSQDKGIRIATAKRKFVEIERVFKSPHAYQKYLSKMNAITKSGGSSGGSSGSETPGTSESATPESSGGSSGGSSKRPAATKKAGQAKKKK
As to the kind of experiment: cell_activity; HEK293T; PAM AGCC 3'. The procedure:
HEK293T cells were transfected with plasmids expressing the Nuclease S polypeptides and the gRNAs provided herein following the methods provided in Example 1 above. Gene editing efficiencies were determined by NGS following the methods also provided in Example 1. The NGS results were analyzed also following the methods provided in Example 1 above.
Each Nuclease S variant was cloned as described in Example 6. HEK293T cells were further transfected with a plasmid encoding a Nuclease S variant and a plasmid encoding an RNA guide of Table 11, followed by NGS analysis, as described in Example 5. For each target, indel ratios, referring to the percentage of NGS reads comprising indels, were calculated for the reference Nuclease S (SEQ ID NO: 49) and for each Nuclease S variant. The indel ratios shown in Table 13 were calculated as the average of two bioreplicates, each of which contained two technical replicates.

The target of data set [1] is T2, Nuclease H (synthetic construct).
T2 chain: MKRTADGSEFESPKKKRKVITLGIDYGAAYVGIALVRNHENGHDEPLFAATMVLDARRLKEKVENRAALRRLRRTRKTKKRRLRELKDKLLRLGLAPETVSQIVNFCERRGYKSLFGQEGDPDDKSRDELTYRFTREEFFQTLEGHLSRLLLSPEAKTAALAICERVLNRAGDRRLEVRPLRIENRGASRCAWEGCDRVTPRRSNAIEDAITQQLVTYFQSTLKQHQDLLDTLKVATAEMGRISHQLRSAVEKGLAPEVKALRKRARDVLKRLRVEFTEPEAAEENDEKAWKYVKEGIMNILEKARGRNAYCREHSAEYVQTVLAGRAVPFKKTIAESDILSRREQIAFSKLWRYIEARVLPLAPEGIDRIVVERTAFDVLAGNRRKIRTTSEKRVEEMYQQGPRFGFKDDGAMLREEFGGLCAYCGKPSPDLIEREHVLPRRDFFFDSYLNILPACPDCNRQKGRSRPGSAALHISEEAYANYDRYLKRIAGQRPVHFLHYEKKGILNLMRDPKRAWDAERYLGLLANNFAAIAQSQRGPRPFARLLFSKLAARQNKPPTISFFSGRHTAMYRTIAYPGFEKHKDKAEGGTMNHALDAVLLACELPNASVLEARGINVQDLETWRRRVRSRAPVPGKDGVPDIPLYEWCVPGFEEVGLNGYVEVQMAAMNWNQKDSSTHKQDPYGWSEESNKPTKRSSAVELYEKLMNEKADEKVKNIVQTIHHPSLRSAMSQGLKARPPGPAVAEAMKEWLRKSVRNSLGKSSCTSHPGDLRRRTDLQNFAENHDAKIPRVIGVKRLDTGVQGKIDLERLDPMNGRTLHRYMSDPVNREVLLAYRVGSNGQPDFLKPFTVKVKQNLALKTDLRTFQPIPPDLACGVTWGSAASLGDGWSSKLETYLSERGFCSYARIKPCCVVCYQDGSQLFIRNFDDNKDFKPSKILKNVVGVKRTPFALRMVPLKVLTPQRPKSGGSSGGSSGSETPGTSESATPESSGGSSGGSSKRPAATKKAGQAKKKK
As to the kind of experiment: cell_activity; HEK293T; PAM CAC 3'.

In a further data set the target is T3, Nuclease H T783R (synthetic construct, T783R).
T3 chain: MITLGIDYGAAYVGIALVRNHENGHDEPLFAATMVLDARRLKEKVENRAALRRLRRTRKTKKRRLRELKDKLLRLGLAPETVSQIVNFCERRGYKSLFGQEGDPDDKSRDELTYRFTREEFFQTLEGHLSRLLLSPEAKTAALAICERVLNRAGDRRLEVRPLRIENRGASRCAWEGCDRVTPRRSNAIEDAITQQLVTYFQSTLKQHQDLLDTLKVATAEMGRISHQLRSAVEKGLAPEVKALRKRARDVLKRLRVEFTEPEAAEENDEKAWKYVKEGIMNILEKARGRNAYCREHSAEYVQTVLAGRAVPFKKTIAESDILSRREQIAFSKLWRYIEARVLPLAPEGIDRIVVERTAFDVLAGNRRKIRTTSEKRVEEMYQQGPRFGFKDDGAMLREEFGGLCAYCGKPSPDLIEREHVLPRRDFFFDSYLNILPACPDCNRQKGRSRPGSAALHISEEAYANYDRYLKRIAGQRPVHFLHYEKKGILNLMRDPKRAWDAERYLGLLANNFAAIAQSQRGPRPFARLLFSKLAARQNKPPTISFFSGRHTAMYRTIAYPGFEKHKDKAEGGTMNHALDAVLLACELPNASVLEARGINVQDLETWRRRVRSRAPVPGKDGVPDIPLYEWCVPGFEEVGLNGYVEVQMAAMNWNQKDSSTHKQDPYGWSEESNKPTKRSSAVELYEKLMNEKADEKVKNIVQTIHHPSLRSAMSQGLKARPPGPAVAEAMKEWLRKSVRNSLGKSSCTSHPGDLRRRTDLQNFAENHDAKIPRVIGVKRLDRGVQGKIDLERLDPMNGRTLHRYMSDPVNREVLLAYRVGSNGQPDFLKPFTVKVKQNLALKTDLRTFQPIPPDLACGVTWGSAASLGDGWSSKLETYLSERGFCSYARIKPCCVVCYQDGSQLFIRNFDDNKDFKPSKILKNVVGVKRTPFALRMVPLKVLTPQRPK
As to the kind of experiment: cell_activity; HEK293T; PAM CAC. The procedure: HEK293T cells were transfected with plasmids expressing the Nuclease H polypeptides and the gRNAs provided herein following the methods provided in Example 1 above. Gene editing efficiencies were determined by NGS following the methods also provided in Example 1. The NGS results were analyzed also following the methods provided in Example 1 above.
Indel ratios, referring to the percentage of NGS reads comprising indels, were calculated for the reference and for each variant. The indel ratios used for fold change calculations were the average of two technical replicates. To then calculate fold change in indel ratios, the indel ratio for each variant was divided by the indel ratio for the reference. […] Numbering is relative to the reference nuclease of SEQ ID NO: 64 (i.e., without an NLS).

The target of data set [2] is T2, Nuclease H. As to the kind of experiment: cell_activity; HEK293T; PAM GAC 3'.

B1: S EMX1-T4 RNA guide ; EMX1-T4 target (S) (ssRNA ; dsDNA)
RNA: AUGACUCCAGGCCUCCCCAAGUUGUAUUCGGAUGGGAGUAAAAGGUUGAGUACACCUGGAAACAAAACGACAUAAAGGUGUUCUCCCAUCUGUGUACAAAGAGCAGAUAUAUGAGUUGAUAAGUAAUAUGUUGCACGUAUGGACUUUGACAGUCUGUACCUCUGCGUGAAAGACAUAUUGCGUUAUUCAUAUAUCUGUGAGUCUGUUCUAAAUUUAAAGGUUUAGGGAA
DNA 1: ATGACTCCAGGCCTCCCCAA
DNA 2: TTGGGGAGGCCTGGAGTCAT
For the molecule B1, in the data set with Nuclease S, the activity is 0.0265 indel ratio.

B2: S VEGFA-T4 RNA guide ; VEGFA-T4 target (S) (ssRNA ; dsDNA)
RNA: CUCUACACAAAUCUCUCCAGGUUGUAUUCGGAUGGGAGUAAAAGGUUGAGUACACCUGGAAACAAAACGACAUAAAGGUGUUCUCCCAUCUGUGUACAAAGAGCAGAUAUAUGAGUUGAUAAGUAAUAUGUUGCACGUAUGGACUUUGACAGUCUGUACCUCUGCGUGAAAGACAUAUUGCGUUAUUCAUAUAUCUGUGAGUCUGUUCUAAAUUUAAAGGUUUAGGGAA
DNA 1: CTCTACACAAATCTCTCCAG
DNA 2: CTGGAGAGATTTGTGTAGAG
As to B2, the activity with Nuclease S came out at 0.0333 indel ratio.

B3: H EMX1-T5 RNA guide ; EMX1-T5 target (H) (ssRNA ; dsDNA)
RNA: GAGGCCUGGAGUCAUGGCCCGUUUCAAUCAACCUGAUCUCUCUGCUUGCGCUGCAGGCUUCAUAAGAUCAGUAGGUUGAAAAGAGCAUCCGUCCGACAUGCACUCCGGGAUGGGGCAGUCCCGGCUCUUGCGGUUCCCGAUGCAGUUAUGUGUCCGCGGAACACGGUGUCGGACACGUCGCAAGACAGGAUGUGAGCCCAUUAUCCACAUUAGGAUCAAUGUACGCAUGAGCAGUCCGCAAUGCCGGGGACGCU
DNA 1: GAGGCCTGGAGTCATGGCCC
DNA 2: GGGCCATGACTCCAGGCCTC
With B3, the activity with Nuclease H [1] is 0.032 indel ratio. Besides, the “fold change in indel ratio vs reference” value in the data set with Nuclease H T783R was 4.33 fold indel vs reference.

B4: H VEGFA-T6 RNA guide ; VEGFA-T6 target (H) (ssRNA ; dsDNA)
RNA: GACUCUUCAAAUCCUCCCUUGUUUCAAUCAACCUGAUCUCUCUGCUUGCGCUGCAGGCUUCAUAAGAUCAGUAGGUUGAAAAGAGCAUCCGUCCGACAUGCACUCCGGGAUGGGGCAGUCCCGGCUCUUGCGGUUCCCGAUGCAGUUAUGUGUCCGCGGAACACGGUGUCGGACACGUCGCAAGACAGGAUGUGAGCCCAUUAUCCACAUUAGGAUCAAUGUACGCAUGAGCAGUCCGCAAUGCCGGGGACGCU
DNA 1: GACTCTTCAAATCCTCCCTT
DNA 2: AAGGGAGGATTTGAAGAGTC
With B4, the activity with Nuclease H [2] was 0.0378 indel ratio.
